Laboratory results reported in publication PMC11480844.

B1: H2-Kb / E8 (parent)
chain 1: GDSVTQTEGLVTVTEGLPVKLNCTYQTTYLTIAFFWYVQYLNEAPQVLLKSSTDNKRTEHQGFHATLHKSSSSFHLQKSSAQLSDSALYYCALNTNTGKLTFGDGTVLTVKP
chain 2: EAAVTQSPRNKVAVTGGKVTLSCNQTNNHNNMYWYRQDTGHGLRLIHYSYGAGSTEKGDIPDGYKASRPSQENFSLILELATPSQTSVYFCASGDWGAGTGQLYFGEGSKLTVL
chain 3: not shown
chain 4: IQKTPQIQVYSRHPPENGKPNILNCYVTQFHPPHIEIQMLKNGKKIPKVEMSDMSFSKDWSFYILAHTEFTPTETDTYACRVKHDSMAEPKTVYWDRDM
chain 5: SIINFEKL
B2: H2-Kb / B5 (parent)
chain 1: TQTVSQSDAHVTVFEGDSVELRCNYSYGGSIYLSWYIQHHGHGLQFLLKYYSGNPVVQGVNGFEAEFSKSDSSFHLRKASVHWSDSAVYFCAVSLYQGGRALIFGTGTTVSVSP
chain 2: EAGVTQSPRYAVLQEGQAVSFWCDPISGHDTLYWYQQPRDQGPQLLVYFRDEAVIDNSQLPSDRFSAVRPKGTNSTLKIQSAKQGDTATYLCASSFAGGARAEQFFGPGTRLTVL
chain 3: not shown
chain 4: B1 chain 4
chain 5: SIINFEKL

Variants of: B1
Test: % of reporter cells activated (NFAT-GFP), raw
Settings: with E8; scale: % of reporter cells activated
Further: test concentration or dose not given here.

Ratio to parent, by site and new letter:
chain 5 F5: M 1.04, N 1.13, P 1.03, Q 0.682, R 0.77, S 1.09, T 0.892, V 3.19, W 2.35, Y 1.09
chain 5 I2: A 1.19, C 1.31, D 1.78, E 0.694, F 0.604, G 0.418, H 0.943, K 0.571, L 2.58, M 0.834, N 0.771, P 1.66, Q 0.307, R 0.251, S 1.54, T 2.56, V 2.6, W 3.66, Y 0.205
chain 5 I3: A 0.244, C 0.982, D 0.0231, E 0.331, F 2.52, G 0.241, H 1.57, K 0.147, L 1.93, M 1.45, N 0.231, P 0.735, Q 0.475, R 0.605, S 2.66, T 0.273, V 0.61, W 1.9, Y 3.36
chain 5 K7: A 0.522, C 0.196, D 0.288, E 0.415, F 0.14, G 0.377, H 0.14, I 0.132, L 0.119, M 0.239, N 0.18, P 0.0848, Q 0.256, R 1.06, S 0.491, T 0.223, V 0.175, W 0.235, Y 0.121
chain 5 L8: A 0.534, C 0.214, D 0.154, E 0.264, F 0.826, G 0.949, H 0.898, I 0.998, K 0.228, M 0.838, N 0.755, P 0.187, Q 0.38, R 0.331, S 0.214, T 0.444, V 0.473, W 0.344, Y 1.23
chain 5 N4: A 0.402, C 0.0617, D 0.0157, E 0.0223, F 0.0343, G 0.104, H 0.0899, I 0.11, K 0.0265, L 0.0142, M 0.0197, P 2.41, Q 0.0151, R 0.0317, S 0.0377, T 0.394, V 0.637, W 1.86, Y 0.0136
chain 5 S1: A 0.897, C 0.0291, D 1.87, E 0.252, F 0.0608, G 0.205, H 0.0497, I 0.0565, K 0.00805, L 0.0264, M 0.0169, N 0.0146, P 0.0215, Q 0.0368, R 0.0279, T 0.0377, V 0.0822, W 0.0202, Y 0.0177

Variants of: B2
Test: % of reporter cells activated (NFAT-GFP), raw
Settings: with B5; scale: % of reporter cells activated

Ratio to parent, by site and new letter:
chain 5 E6: A 0.708, C 1.38, D 1, F 1.54, G 1.01, H 1.03, I 1.36, K 1.17, L 1.4, M 0.903, N 1.12, P 1.11, Q 1.24, R 0.806, S 1.03, T 1.17, V 0.75, W 1.12, Y 1.44
chain 5 F5: A 0.611, C 1.92, D 1.28, E 0.472, G 0.569, H 0.556, I 0.597, K 1.06, L 0.958, M 1.01, N 1.36, P 1.04, Q 1.14, R 1, S 0.806, T 0.653, V 3.75, W 0.694, Y 1.29
chain 5 I2: A 0.736, C 0.694, D 1.18, E 1.1, F 0.875
